Earlier results, collected in publication PMC2935699.

Tests used:
Galanin receptor 1 = Galanin receptor 1 (UniProt P47211)
Galanin receptor 3 = Galanin receptor 3 (UniProt O60755)
Galanin receptor 2 = Galanin receptor 2 (UniProt O43603)
UniProt O43603, sequence (O43603 whole entry): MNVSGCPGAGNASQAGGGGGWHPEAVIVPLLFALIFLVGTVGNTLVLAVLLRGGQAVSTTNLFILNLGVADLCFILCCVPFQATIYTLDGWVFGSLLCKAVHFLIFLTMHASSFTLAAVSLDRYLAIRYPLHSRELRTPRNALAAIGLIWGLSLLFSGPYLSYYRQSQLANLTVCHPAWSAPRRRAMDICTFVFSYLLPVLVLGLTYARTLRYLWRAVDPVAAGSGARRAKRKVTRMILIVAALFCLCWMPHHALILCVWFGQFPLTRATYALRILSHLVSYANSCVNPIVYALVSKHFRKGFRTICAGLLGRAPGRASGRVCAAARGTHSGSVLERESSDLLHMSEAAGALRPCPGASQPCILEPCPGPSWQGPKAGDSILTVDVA

UniProt P47211, sequence (P47211 whole entry): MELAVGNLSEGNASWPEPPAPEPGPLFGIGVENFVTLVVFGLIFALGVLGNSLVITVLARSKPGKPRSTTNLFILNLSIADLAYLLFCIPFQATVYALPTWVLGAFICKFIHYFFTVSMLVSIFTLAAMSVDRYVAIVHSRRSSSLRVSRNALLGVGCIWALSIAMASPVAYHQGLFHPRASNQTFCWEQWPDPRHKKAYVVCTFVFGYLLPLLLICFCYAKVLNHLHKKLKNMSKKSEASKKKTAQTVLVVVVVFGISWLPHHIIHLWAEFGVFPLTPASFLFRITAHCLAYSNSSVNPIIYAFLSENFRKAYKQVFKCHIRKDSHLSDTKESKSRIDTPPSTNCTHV
UniProt O60755, sequence (O60755 whole entry): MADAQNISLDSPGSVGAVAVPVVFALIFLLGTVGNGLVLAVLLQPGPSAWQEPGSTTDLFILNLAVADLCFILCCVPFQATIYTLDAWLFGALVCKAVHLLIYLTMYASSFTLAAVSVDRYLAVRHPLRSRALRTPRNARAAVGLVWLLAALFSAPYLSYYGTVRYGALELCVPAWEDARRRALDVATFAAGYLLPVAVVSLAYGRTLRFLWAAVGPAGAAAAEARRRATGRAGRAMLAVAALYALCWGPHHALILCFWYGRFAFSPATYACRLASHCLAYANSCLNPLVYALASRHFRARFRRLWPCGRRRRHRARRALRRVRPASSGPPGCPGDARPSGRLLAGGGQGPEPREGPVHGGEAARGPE

With Galanin 1-16 1-16 (from UniProt P22466) as the substance, how does the Ki (Galanin receptor 1) read?
The Ki was 4.8 nM.

What about the Ki (Galanin receptor 3) of the same substance?
Its Ki is 49.6 nM.

What about the Ki (Galanin receptor 2) of the same substance?
Its Ki is 5.66 nM.
